Data set [1] deals with T1, recombinant full-length UVR8^W285A from Sf9 cells (Arabidopsis), Q9FN03.
T1 chain: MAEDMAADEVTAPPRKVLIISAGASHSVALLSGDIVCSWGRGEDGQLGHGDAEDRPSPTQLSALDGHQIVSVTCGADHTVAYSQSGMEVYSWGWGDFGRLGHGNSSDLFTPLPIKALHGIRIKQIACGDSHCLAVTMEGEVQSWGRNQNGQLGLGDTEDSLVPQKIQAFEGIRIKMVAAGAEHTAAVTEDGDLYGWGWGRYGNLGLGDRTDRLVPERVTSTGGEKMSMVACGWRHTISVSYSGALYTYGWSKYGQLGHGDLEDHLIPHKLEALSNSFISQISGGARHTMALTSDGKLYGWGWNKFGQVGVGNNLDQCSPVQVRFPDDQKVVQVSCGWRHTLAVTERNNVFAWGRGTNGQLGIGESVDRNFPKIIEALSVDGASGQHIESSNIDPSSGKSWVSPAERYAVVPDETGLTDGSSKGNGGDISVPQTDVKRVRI
Nature of the data set: SEC. Conditions: remark: other sources report otherwise.

The target in data set [2] is T2, UVR8^W285A overexpressed in uvr8-7/Pro35S:UVR8^W285A seedlings (Arabidopsis thaliana), Q9FN03.
T2 chain: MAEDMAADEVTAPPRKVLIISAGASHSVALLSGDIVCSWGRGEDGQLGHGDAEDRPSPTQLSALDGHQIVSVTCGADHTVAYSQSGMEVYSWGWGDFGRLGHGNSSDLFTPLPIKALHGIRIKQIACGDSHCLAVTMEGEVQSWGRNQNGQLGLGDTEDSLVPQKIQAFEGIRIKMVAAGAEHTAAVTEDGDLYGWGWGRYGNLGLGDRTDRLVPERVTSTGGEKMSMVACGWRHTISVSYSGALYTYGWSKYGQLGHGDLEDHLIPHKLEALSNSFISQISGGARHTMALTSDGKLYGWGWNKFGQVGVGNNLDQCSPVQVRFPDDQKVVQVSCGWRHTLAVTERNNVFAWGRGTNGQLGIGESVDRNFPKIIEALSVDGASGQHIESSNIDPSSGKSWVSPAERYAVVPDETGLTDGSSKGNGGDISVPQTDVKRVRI
Nature of the data set: cross-linking. Conditions: remark: other sources report otherwise.

The data set “cross-linking” deals with the molecule itself. Kind of data set: cross-linking.
Data set [3] deals with T3, recombinant full-length UVR8 (wild type) from Sf9 cells (Arabidopsis, UniProt Q9FN03 1-440).
T3 sequence: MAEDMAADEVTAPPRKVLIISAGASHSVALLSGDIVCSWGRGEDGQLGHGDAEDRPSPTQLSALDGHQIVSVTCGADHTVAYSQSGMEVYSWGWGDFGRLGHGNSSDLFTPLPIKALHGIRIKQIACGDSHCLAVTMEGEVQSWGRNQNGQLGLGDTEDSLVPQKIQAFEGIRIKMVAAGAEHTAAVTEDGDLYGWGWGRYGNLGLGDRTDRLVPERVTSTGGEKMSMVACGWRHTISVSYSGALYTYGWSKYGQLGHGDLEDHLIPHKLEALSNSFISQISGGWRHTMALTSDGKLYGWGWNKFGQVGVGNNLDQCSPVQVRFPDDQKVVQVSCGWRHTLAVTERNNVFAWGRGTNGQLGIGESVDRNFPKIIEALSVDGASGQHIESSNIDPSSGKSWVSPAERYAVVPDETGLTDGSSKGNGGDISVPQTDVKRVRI
Nature of the data set: grating-coupled interferometry.

In data set [4] the target is T4, recombinant full-length UVR8^W285A from Sf9 cells (Arabidopsis, UniProt Q9FN03 1-440, W285A).
T4 sequence: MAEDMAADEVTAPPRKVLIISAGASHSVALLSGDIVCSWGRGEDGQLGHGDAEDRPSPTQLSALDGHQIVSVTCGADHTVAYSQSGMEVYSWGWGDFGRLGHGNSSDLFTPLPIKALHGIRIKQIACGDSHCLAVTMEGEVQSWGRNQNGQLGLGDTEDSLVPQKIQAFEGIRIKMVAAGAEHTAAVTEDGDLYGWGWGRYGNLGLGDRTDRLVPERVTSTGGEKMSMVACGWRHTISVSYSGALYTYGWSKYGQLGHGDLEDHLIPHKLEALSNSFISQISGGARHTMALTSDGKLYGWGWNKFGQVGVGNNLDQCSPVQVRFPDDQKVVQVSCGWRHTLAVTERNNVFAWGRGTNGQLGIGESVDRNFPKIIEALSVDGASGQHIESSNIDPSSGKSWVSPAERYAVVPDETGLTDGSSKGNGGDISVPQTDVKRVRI
Kind of data set: grating-coupled interferometry.

B1: recombinant full-length UVR8^W285A from Sf9 cells, Q9FN03 1-440 (natural protein)
chain: MAEDMAADEVTAPPRKVLIISAGASHSVALLSGDIVCSWGRGEDGQLGHGDAEDRPSPTQLSALDGHQIVSVTCGADHTVAYSQSGMEVYSWGWGDFGRLGHGNSSDLFTPLPIKALHGIRIKQIACGDSHCLAVTMEGEVQSWGRNQNGQLGLGDTEDSLVPQKIQAFEGIRIKMVAAGAEHTAAVTEDGDLYGWGWGRYGNLGLGDRTDRLVPERVTSTGGEKMSMVACGWRHTISVSYSGALYTYGWSKYGQLGHGDLEDHLIPHKLEALSNSFISQISGGARHTMALTSDGKLYGWGWNKFGQVGVGNNLDQCSPVQVRFPDDQKVVQVSCGWRHTLAVTERNNVFAWGRGTNGQLGIGESVDRNFPKIIEALSVDGASGQHIESSNIDPSSGKSWVSPAERYAVVPDETGLTDGSSKGNGGDISVPQTDVKRVRI
The stoichiometry N is a count of units in the complex or per binding partner. With B1, the stoichiometry N in data set [1] worked out at 2.

B2: UVR8^W285A overexpressed in uvr8-7/Pro35S:UVR8^W285A seedlings, Q9FN03 1-440 (natural protein)
chain: MAEDMAADEVTAPPRKVLIISAGASHSVALLSGDIVCSWGRGEDGQLGHGDAEDRPSPTQLSALDGHQIVSVTCGADHTVAYSQSGMEVYSWGWGDFGRLGHGNSSDLFTPLPIKALHGIRIKQIACGDSHCLAVTMEGEVQSWGRNQNGQLGLGDTEDSLVPQKIQAFEGIRIKMVAAGAEHTAAVTEDGDLYGWGWGRYGNLGLGDRTDRLVPERVTSTGGEKMSMVACGWRHTISVSYSGALYTYGWSKYGQLGHGDLEDHLIPHKLEALSNSFISQISGGARHTMALTSDGKLYGWGWNKFGQVGVGNNLDQCSPVQVRFPDDQKVVQVSCGWRHTLAVTERNNVFAWGRGTNGQLGIGESVDRNFPKIIEALSVDGASGQHIESSNIDPSSGKSWVSPAERYAVVPDETGLTDGSSKGNGGDISVPQTDVKRVRI
Turning to B2, the stoichiometry N in data set [2] was determined as 2.

B3: UVR8^W285F overexpressed in uvr8-7/Pro35S:UVR8^W285F seedlings (natural protein)
chain: MAEDMAADEVTAPPRKVLIISAGASHSVALLSGDIVCSWGRGEDGQLGHGDAEDRPSPTQLSALDGHQIVSVTCGADHTVAYSQSGMEVYSWGWGDFGRLGHGNSSDLFTPLPIKALHGIRIKQIACGDSHCLAVTMEGEVQSWGRNQNGQLGLGDTEDSLVPQKIQAFEGIRIKMVAAGAEHTAAVTEDGDLYGWGWGRYGNLGLGDRTDRLVPERVTSTGGEKMSMVACGWRHTISVSYSGALYTYGWSKYGQLGHGDLEDHLIPHKLEALSNSFISQISGGFRHTMALTSDGKLYGWGWNKFGQVGVGNNLDQCSPVQVRFPDDQKVVQVSCGWRHTLAVTERNNVFAWGRGTNGQLGIGESVDRNFPKIIEALSVDGASGQHIESSNIDPSSGKSWVSPAERYAVVPDETGLTDGSSKGNGGDISVPQTDVKRVRI
Consider B3, for which the “stoichiometry N” value in “cross-linking” was 2.

B4: COP1 WD40 domain (COP1^349–675), recombinant from Sf9 cells (domain or fragment)
chain: TFTRYSRLRVIAEIRHGDIFHSANIVSSIEFDRDDELFATAGVSRCIKVFDFSSVVNEPADMQCPIVEMSTRSKLSCLSWNKHEKNHIASSDYEGIVTVWDVTTRQSLMEYEEHEKRAWSVDFSRTEPSMLVSGSDDCKVKVWCTRQEASVINIDMKANICCVKYNPGSSNYIAVGSADHHIHYYDLRNISQPLHVFSGHKKAVSYVKFLSNNELASASTDSTLRLWDVKDNLPVRTFRGHTNEKNFVGLTVNSEYLACGSETNEVYVYHKEITRPVTSHRFGSPDMDDAEEEAGSYFISAVCWKSDSPTMLTANSQGTIKVLVLAA
Take B4: the binding result in data set [3] and in data set [4] was “binds” each time.
